Values joined by “and” are separate entries in the source; they are usually repeats but may differ in a detail not shown here. Identical values can stand only once. Like-named read-outs stand apart in the source and are kept apart here.

Test [1] has as its target T1, Recombinant Human IL-1β (human, UniProt P01584 117-269).
T1 construct: also called IL-1b; IL-1B
The experiment in a line: direct bind ELISA. On the technique in general: ELISA stands for enzyme-linked immunosorbent assay.

Test [2] addresses T2, IL-1α (UniProt P01583 113-271).
T2 construct: also called IL-1alpha; IL-1a
T2 sequence (looked up): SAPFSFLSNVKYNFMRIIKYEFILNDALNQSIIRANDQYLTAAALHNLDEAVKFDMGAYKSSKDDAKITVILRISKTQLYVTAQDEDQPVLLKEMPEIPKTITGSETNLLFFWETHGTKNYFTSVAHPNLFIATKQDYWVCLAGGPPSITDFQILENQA
The test is described as follows: direct bind ELISA.

Test [3] concerns the target T3, Recombinant Human TRANCE/RANKL/TNFSF 11 (human, UniProt O14788 69-317).
T3 construct: extracellular domain
T3 sequence (looked up): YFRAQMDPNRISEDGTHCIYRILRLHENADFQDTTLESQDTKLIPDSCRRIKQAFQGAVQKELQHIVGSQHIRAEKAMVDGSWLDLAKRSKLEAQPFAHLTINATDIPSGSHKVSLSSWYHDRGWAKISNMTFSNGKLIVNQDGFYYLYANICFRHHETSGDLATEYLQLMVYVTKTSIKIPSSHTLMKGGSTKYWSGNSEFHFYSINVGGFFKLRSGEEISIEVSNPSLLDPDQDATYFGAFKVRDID
The experiment in a line: direct bind ELISA. Here is the method: (§1) Enzyme Linked Immunosorbent Assays to screen for antibodies that bind a desired target antigen were performed as follows. High bind ELISA plates (Corning Costar # 3369, Acton, Mass.) were coated with 100 μL/well of 10 μg/ml of desired target antigen (R&D Systems, Minneapolis, Minn.) or desired target antigen extra-cellular domain/FC fusion protein (R&D Systems, Minneapolis, Minn.) or monoclonal mouse anti-polyhistidine antibody (R&D Systems # MAB050, Minneapolis, Minn.) in phosphate buffered saline (10×PBS, Abbott Bioresearch Center, Media Prep# MPS-073, Worcester, Mass.) overnight at 4° C. Plates were washed four times with PBS containing 0.02% Tween 20. Plates were blocked by the addition of 300 μL/well blocking solution (non-fat dry milk powder, various retail suppliers, diluted to 2% in PBS) for ½ hour at room temperature. Plates were washed four times after blocking with PBS containing 0.02% Tween 20.
(§2) Plates were washed 4 times with PBS containing 0.02% Tween 20.
(§3) One hundred microliters of enhanced TMB solution (Neogen Corp. #308177, K Blue, Lexington, Ky.) was added to each well and incubated for 10 minutes at room temperature. The reaction was stopped by the addition of 50 μL 1N sulphuric acid. Plates were read spectrophotometrically at a wavelength of 450 nm.

The target in test [4] is T1, Recombinant Human IL-1β. The test is described as follows: cell-based or functional assay.
Test [5] concerns the target T1, Recombinant Human IL-1β. The experiment in a line: Biacore SPR. Here is the method:
(§4) The BIACORE assay (Biacore, Inc, Piscataway, N.J.) determines the affinity of antibodies or DVD-Ig with kinetic measurements of on-rate and off-rate constants. Binding of antibodies or DVD-Ig to a target antigen (for example, a purified recombinant target antigen) is determined by surface plasmon resonance-based measurements with a BiacoreR 1000 or 3000 instrument (Biacore® AB, Uppsala, Sweden) using running HBS-EP (10 mM HEPES [pH 7.4], 150 mM NaCl, 3 mM EDTA, and 0.005% surfactant P20) at 25° C. All chemicals are obtained from Biacore® AB (Uppsala, Sweden) or otherwise from a different source as described in the text. For example, approximately 5000 RU of goat anti-mouse IgG, (Fcγ), fragment specific polyclonal antibody (Pierce Biotechnology Inc, Rockford, Ill.) diluted in 10 mM sodium acetate (pH 4.5) is directly immobilized across a CM5 research grade biosensor chip using a standard amine coupling kit according to manufacturer's instructions and procedures at 25 μg/ml. Unreacted moieties on the biosensor surface are blocked with ethanolamine. Modified carboxymethyl dextran surface in flowcell 2 and 4 is used as a reaction surface. Unmodified carboxymethyl dextran without goat anti-mouse IgG in flow cell 1 and 3 is used as the reference surface. For kinetic analysis, rate equations derived from the 1:1 Langmuir binding model are fitted simultaneously to association and dissociation phases of all eight injections (using global fit analysis) with the use of Biaevaluation 4.0.1 software. Purified antibodies or DVD-Ig are diluted in HEPES-buffered saline for capture across goat anti-mouse IgG specific reaction surfaces. Antibodies or DVD-Ig to be captured as a ligand (25 μg/ml) are injected over reaction matrices at a flow rate of 5 μl/min. The association and dissociation rate constants, kₒₙ (M⁻¹s⁻¹) and koff (s⁻¹) are determined under a continuous flow rate of 25 μl/min. Rate constants are derived by making kinetic binding measurements at different antigen concentrations ranging from […]. The equilibrium dissociation constant (M) of the reaction between antibodies or DVD-Igs and the target antigen is then calculated from the kinetic rate constants by the following formula: KD=koff/kₒₙ. Binding is recorded as a function of time and kinetic rate constants are calculated.
(In general: SPR reads the build-up and loss of mass on a sensor chip optically.)

Test [6] addresses T3, Recombinant Human TRANCE/RANKL/TNFSF 11. The experiment in a line: Biacore SPR. Here is the method: as §4
For test [7], the target named is T1, Recombinant Human IL-1β. The experiment in a line: direct bind ELISA. Here is the method:
as §1, §2, §3
This is another data set of the same source.

B1: DVD383 (bispecific antibody, human IgG1, kappa)
heavy: not shown
light: DIQMTQSPSSVSASVGDRVTITCRASQGISSWLAWYQQKPGKAPKLLIYEASNLETGVPSRFSGSGSGSDFTLTISSLQPEDFATYYCQQTSSFLLSFGGGTKVEHKRTVAAPSVFIFPPDIQMTQSPSSLSASVGDRVTITCRASGNIHNYLTWYQQTPGKAPKLLIYNAKTLADGVPSRFSGSGSGTDYTFTISSLQPEDIATYYCQHFWSIPYTFGQGTKLQITTVAAPSVFIFPPSDEQLKSGTASVVCLLNNFYPREAKVQWKVDNALQSGNSQESVTEQDSKDSTYSLSSTLTLSKADYEKHKVYACEVTHQGLSSPVTKSFNRGEC
notes: vectors V1, V2
With B1, the EC50 in test [1] is 2620 nM.

B2: DVD378 (bispecific antibody, human IgG1, kappa)
heavy: not shown
light: EIVLTQSPDFQSVTPKEKVTITCRASQSIGSSLHWYQQKPDQSPKLLIKYASQSFSGVPSRFSGSGSGTDFTLTINSLEAEDAAAYYCHQSSSLPFTFGPGTKVDIKRTVAAPDIQMTQSPSSVSASVGDRVTITCRASQGISSWLAWYQQKPGKAPKLLIYEASNLETGVPSRFSGSGSGSDFTLTISSLQPEDFATYYCQQTSSFLLSFGGGTKVEHKRTVAAPSVFIFPPSDEQLKSGTASVVCLLNNFYPREAKVQWKVDNALQSGNSQESVTEQDSKDSTYSLSSTLTLSKADYEKHKVYACEVTHQGLSSPVTKSFNRGEC
notes: vectors V1, V2
For B2, the EC50 in test [2] amounted to 2.86 nM; in test [1] it was 1.89 nM.

B3: DVD377 (bispecific antibody, human IgG1, kappa)
heavy: not shown
light: DIQMTQSPSSVSASVGDRVTITCRASQGISSWLAWYQQKPGKAPKLLIYEASNLETGVPSRFSGSGSGSDFTLTISSLQPEDFATYYCQQTSSFLLSFGGGTKVEHKRTVAAPEIVLTQSPDFQSVTPKEKVTITCRASQSIGSSLHWYQQKPDQSPKLLIKYASQSFSGVPSRFSGSGSGTDFTLTINSLEAEDAAAYYCHQSSSLPFTFGPGTKVDIKRTVAAPSVFIFPPSDEQLKSGTASVVCLLNNFYPREAKVQWKVDNALQSGNSQESVTEQDSKDSTYSLSSTLTLSKADYEKHKVYACEVTHQGLSSPVTKSFNRGEC
notes: vectors V1, V2
Consider B3, for which the EC50 was found to be 143 nM in test [2] and 165 nM in test [1].

B4: DVD374 (bispecific antibody, human IgG1, kappa)
heavy: not shown
light: EIVLTQSPDFQSVTPKEKVTITCRASQSIGSSLHWYQQKPDQSPKLLIKYASQSFSGVPSRFSGSGSGTDFTLTINSLEAEDAAAYYCHQSSSLPFTFGPGTKVDIKRTVAAPSVFIFPPDIQMTQSPSSVSASVGDRVTITCRASQGISSWLAWYQQKPGKAPKLLIYEASNLETGVPSRFSGSGSGSDFTLTISSLQPEDFATYYCQQTSSFLLSFGGGTKVEHKRTVAAPSVFIFPPSDEQLKSGTASVVCLLNNFYPREAKVQWKVDNALQSGNSQESVTEQDSKDSTYSLSSTLTLSKADYEKHKVYACEVTHQGLSSPVTKSFNRGEC
notes: vectors V1, V2
As for B4, the values for the EC50 in test [2] and in test [1] were 8.78 nM and 6.47 nM, respectively.

B5: DVD382 (bispecific antibody, human IgG1, kappa)
heavy: not shown
light: EIVLTQSPDFQSVTPKEKVTITCRASQSIGSSLHWYQQKPDQSPKLLIKYASQSFSGVPSRFSGSGSGTDFTLTINSLEAEDAAAYYCHQSSSLPFTFGPGTKVDIKRTVAAPSVFIFPPDIQMTQSPSSVSASVGDRVTITCRASQGISSWLAWYQQKPGKAPKLLIYEASNLETGVPSRFSGSGSGSDFTLTISSLQPEDFATYYCQQTSSFLLSFGGGTKVEHKRTVAAPSVFIFPPSDEQLKSGTASVVCLLNNFYPREAKVQWKVDNALQSGNSQESVTEQDSKDSTYSLSSTLTLSKADYEKHKVYACEVTHQGLSSPVTKSFNRGEC
notes: vectors V1, V2
For B5, the EC50 in test [2] is 4.61 nM; in test [1] it was 6.52 nM.

B6: DVD166 (bispecific antibody, human IgG1, kappa)
heavy: not shown
light: EIVLTQSPGTLSLSPGERATLSCRASQSVRGRYLAWYQQKPGQAPRLLIYGASSRATGIPDRFSGSGSGTDFTLTISRLEPEDFAVFYCQQYGSSPRTFGQGTKVEIKRTVAAPQIVLSQSPAILSPSPGEKVTMTCRASSSVSYIHWFQQKPGSSPKPWIYATSNLASGVPVRFSGSGSGTSYSLTISRVEAEDAATYYCQQWTSNPPTFGGGTKLEIKRTVAAPSVFIFPPSDEQLKSGTASVVCLLNNFYPREAKVQWKVDNALQSGNSQESVTEQDSKDSTYSLSSTLTLSKADYEKHKVYACEVTHQGLSSPVTKSFNRGEC
notes: vectors V1, V2; also called RANKL and CD-20 DVD-Ig
Turning to B6, the concentration for a half-maximal effect (EC50) in test [3] came to 0.12 nM.

B7: DVD381 (bispecific antibody, human IgG1, kappa)
heavy: not shown
light: DIQMTQSPSSVSASVGDRVTITCRASQGISSWLAWYQQKPGKAPKLLIYEASNLETGVPSRFSGSGSGSDFTLTISSLQPEDFATYYCQQTSSFLLSFGGGTKVEHKRTVAAPSVFIFPPEIVLTQSPDFQSVTPKEKVTITCRASQSIGSSLHWYQQKPDQSPKLLIKYASQSFSGVPSRFSGSGSGTDFTLTINSLEAEDAAAYYCHQSSSLPFTFGPGTKVDIKRTVAAPSVFIFPPSDEQLKSGTASVVCLLNNFYPREAKVQWKVDNALQSGNSQESVTEQDSKDSTYSLSSTLTLSKADYEKHKVYACEVTHQGLSSPVTKSFNRGEC
notes: vectors V1, V2
In the case of B7, the figures for the EC50 in test [2] and in test [1] were 965 nM and 500 nM, respectively.

B8: DVD125 (bispecific antibody, human IgG1, kappa)
heavy: not shown
light: EIVLTQSPDFQSVTPKEKVTITCRASQSIGSSLHWYQQKPDQSPKLLIKYASQSFSGVPSRFSGSGSGTDFTLTINSLEAEDAAAYYCHQSSSLPFTFGPGTKVDIKRTVAAPEIVLTQSPGTLSLSPGERATLSCRASQSVRGRYLAWYQQKPGQAPRLLIYGASSRATGIPDRFSGSGSGTDFTLTISRLEPEDFAVFYCQQYGSSPRTFGQGTKVEIKRTVAAPSVFIFPPSDEQLKSGTASVVCLLNNFYPREAKVQWKVDNALQSGNSQESVTEQDSKDSTYSLSSTLTLSKADYEKHKVYACEVTHQGLSSPVTKSFNRGEC
notes: outer AB032, inner AB018; vectors V1, V2
In the case of B8, the “IL-1β Neutralization Assay EC50 (MRC5 cells, hIL-8)” value in test [4] came to 0.043 nM. In addition, in test [5], the dissociation constant (Kd) turned out to be 0.0829 nM, the dissociation rate constant (koff) stood at 0.000107 s⁻¹ and the on-rate (kon) was 1.29e+06 M⁻¹ s⁻¹. In test [6], the dissociation constant (Kd) was found to be 3.5 nM, the off-rate (koff) stood at 7.45e-05 s⁻¹ and the kon is 21200 M⁻¹ s⁻¹. In addition, in test [7], the EC50 was determined as 4.36 nM. Also, in test [3], the EC50 came out at 2.89 nM.

B9: DVD379 (bispecific antibody, human IgG1, kappa)
heavy: not shown
light: DIQMTQSPSSVSASVGDRVTITCRASQGISSWLAWYQQKPGKAPKLLIYEASNLETGVPSRFSGSGSGSDFTLTISSLQPEDFATYYCQQTSSFLLSFGGGTKVEHKRTVAAPDIQMTQSPSSLSASVGDRVTITCRASGNIHNYLTWYQQTPGKAPKLLIYNAKTLADGVPSRFSGSGSGTDYTFTISSLQPEDIATYYCQHFWSIPYTFGQGTKLQITTVAAPSVFIFPPSDEQLKSGTASVVCLLNNFYPREAKVQWKVDNALQSGNSQESVTEQDSKDSTYSLSSTLTLSKADYEKHKVYACEVTHQGLSSPVTKSFNRGEC
notes: vectors V1, V2
Take B9: the concentration giving a half-maximal response (EC50) in test [1] came to 150 nM.

B10: AB032 (antibody, human IgG1, kappa, V domains shown)
VH: QVQLVESGGGVVQPGRSLRLSCAASGFTFSVYGMNWVRQAPGKGLEWVAIIWYDGDNQYYADSVKGRFTISRDNSKNTLYLQMNGLRAEDTAVYYCARDLRTGPFDYWGQGTLVTVSS
VL: EIVLTQSPDFQSVTPKEKVTITCRASQSIGSSLHWYQQKPDQSPKLLIKYASQSFSGVPSRFSGSGSGTDFTLTINSLEAEDAAAYYCHQSSSLPFTFGPGTKVDIKR
notes: vectors V1 and V2
As for B10, the Kd in test [5] is 0.0131 nM. The EC50 is 2.61 nM and 5.27 nM in test [7]; 0.91 nM in test [1].

For orientation: EC50 means the concentration at which the effect is half-maximal. Broadly, the Kd is the concentration at which binding is half-saturated. As usually defined, the koff is a measure of how fast the partners let go of each other. Broadly, the kon is the rate constant with which the complex forms.

The record behind these values is patent US20090311253A1 (AbbVie / Abbott, published 2009).
